Measured values published in paper PMC7778609.

Columns and labels:
[1] = target: human FcγRIIIa^F158 extracellular domain with AviTag and 6×his tag (human) (UniProt P08637); assay: SPR; Biacore T200, HBS-EP+ buffer, 20 °C; 500 nM his-tagged FcγR extracellular domains captured by anti-his antibody on a CM5 chip; twofold serially diluted antibody variants injected (120 s association, 130 s dissociation, 30 μL/min); 1:1 binding kinetics model or steady state affinity model
[2] = target: human FcγRIIIa^V158 extracellular domain with AviTag and 6×his tag (human); assay: as above
[3] = target: human FcγRIIa^H131 extracellular domain with AviTag and 6×his tag (human) (UniProt P12318); assay: as above
human FcγRIIa^H131 extracellular domain with AviTag and 6×his tag (human), sequence (P12318 34-217): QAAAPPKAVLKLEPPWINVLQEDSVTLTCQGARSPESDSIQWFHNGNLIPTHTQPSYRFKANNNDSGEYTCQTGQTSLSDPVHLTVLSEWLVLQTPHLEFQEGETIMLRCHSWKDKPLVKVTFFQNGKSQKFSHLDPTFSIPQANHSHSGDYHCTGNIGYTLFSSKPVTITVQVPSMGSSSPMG

[4] = target: human FcγRIIa^R131 extracellular domain with AviTag and 6×his tag (human); assay: as above
[5] = target: human FcγRIIb extracellular domain with AviTag and 6×his tag (human) (UniProt P31994); assay: as above
human FcγRIIb extracellular domain with AviTag and 6×his tag (human), sequence (P31994 43-217): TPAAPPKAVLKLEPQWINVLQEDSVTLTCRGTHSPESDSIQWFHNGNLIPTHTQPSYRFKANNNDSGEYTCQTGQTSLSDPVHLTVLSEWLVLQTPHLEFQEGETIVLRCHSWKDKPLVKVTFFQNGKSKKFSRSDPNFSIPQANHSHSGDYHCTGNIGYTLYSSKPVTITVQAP

[6] = target: human FcRn, his-tagged (human) (UniProt P55899); assay: SPR; as a1, his-tagged FcRn captured by anti-his antibody, antibody variants injected; pH 6
human FcRn, his-tagged (human), sequence (P55899 24-297): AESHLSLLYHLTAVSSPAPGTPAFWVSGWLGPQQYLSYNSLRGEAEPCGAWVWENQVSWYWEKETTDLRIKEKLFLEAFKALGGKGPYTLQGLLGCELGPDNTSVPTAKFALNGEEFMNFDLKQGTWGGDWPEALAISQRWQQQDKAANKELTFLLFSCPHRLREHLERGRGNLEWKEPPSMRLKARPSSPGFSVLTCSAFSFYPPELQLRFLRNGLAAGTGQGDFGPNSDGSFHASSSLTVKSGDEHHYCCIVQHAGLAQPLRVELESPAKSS

[7] = target: human FcγRI extracellular domain, his-tagged (human) (UniProt P12314); assay: SPR; Biacore T200, HBS-EP+ buffer, 20 °C; 500 nM his-tagged FcγR extracellular domains captured by anti-his antibody on a CM5 chip; twofold serially diluted antibody variants injected (120 s association, 130 s dissociation, 30 μL/min); 1:1 binding kinetics model or steady state affinity model
human FcγRI extracellular domain, his-tagged (human), sequence (P12314 16-292): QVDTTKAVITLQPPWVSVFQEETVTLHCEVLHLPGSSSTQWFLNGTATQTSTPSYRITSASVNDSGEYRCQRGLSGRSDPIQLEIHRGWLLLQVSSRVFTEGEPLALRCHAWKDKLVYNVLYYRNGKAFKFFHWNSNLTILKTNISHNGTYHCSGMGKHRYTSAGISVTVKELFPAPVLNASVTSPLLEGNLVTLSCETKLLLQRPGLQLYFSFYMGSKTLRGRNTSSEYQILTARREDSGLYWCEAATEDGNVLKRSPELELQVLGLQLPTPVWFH

human FcγRIIIa^F158 extracellular domain with AviTag and 6×his tag (human), sequence (P08637 17-208): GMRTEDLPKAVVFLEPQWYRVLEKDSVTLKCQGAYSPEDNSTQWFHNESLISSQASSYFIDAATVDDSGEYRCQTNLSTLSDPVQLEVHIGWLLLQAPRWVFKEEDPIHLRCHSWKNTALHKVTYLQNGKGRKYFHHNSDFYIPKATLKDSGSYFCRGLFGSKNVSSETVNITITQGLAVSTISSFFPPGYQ

Row | Substance | Kd [1] | Kd [2] | Kd [3] | Kd [4] | Kd [5] | Kd [6] | Kd [7]
1 | defucosylated trastuzumab with Fc variant H268E/K326M/I332E (antibody) | 3.55 nM | 1.71 nM | 1040 nM | 420 nM | 1030 nM |  | 
2 | defucosylated trastuzumab with Fc variant H268E/K326S/I332E (antibody) | 2.62 nM | 1.36 nM | 669 nM | 369 nM | 1460 nM |  | 
3 | fucosylated trastuzumab with wild-type Fc (antibody) | 174 nM | 38.5 nM | 1000 nM | 1500 nM | 1240 nM |  | 
4 | rituximab with Fc variant H268E/A330T/I332E (antibody) | 156 nM | 61.1 nM | 627 nM | 575 nM | 906 nM | 21.5 nM | 5.64 nM
5 | rituximab with Fc variant H268E/K326M/I332E (antibody) |  | 69.1 nM | 882 nM | 738 nM | 1050 nM | 26 nM | 5.15 nM

More lines, in order of falling Kd [2], values ahead:

Row | Kd [1] | Kd [2] | Kd [3] | Kd [4] | Kd [5] | Kd [6] | Kd [7] | Substance
6 | 944 nM | 403 nM | 1090 nM | 1250 nM | 2410 nM | 21 nM | 8.67 nM | rituximab with wild-type Fc (antibody)
7 | 311 nM | 143 nM | 1950 nM | 1210 nM | 1690 nM | 25.7 nM | 6.11 nM | rituximab with Fc variant H268E/K326I/I332E (antibody)
8 | 151 nM | 74.7 nM | 814 nM | 803 nM | 1130 nM | 25 nM | 5.18 nM | rituximab with Fc variant H268E/K326S/I332E (antibody)
9 | 94 nM | 60.6 nM | 526 nM | 680 nM | 1470 nM | 21.9 nM | 5.04 nM | rituximab with Fc variant H268E/A330Y/I332D (antibody)
10 | 46.5 nM | 12.3 nM | 2090 nM | 1460 nM | 1780 nM |  |  | defucosylated trastuzumab with wild-type Fc (antibody)
